# B1: unnamed (protein)
# chain: APAGPYNVGYVIYDFPFVSPDGALQSLTTAVWYPTDAEPTPYTYGDGRATGLVSLDGPVSPAGRPFPLVVFSHGYGGGGTANLFLTKHLASWGFVVASPDYPDPDQMVRIRGGGTNTPILQYLRNALRLARTGLDFPFDDYAFRPAGLRTVIDQMLAQNADDTSALHGAIDPDRIAVAGHSLGTFTALSVAGLDPQWTDPRIRAVLALSGGVFMWPTQDFAQVSVPIMFMYGEREAGQRERIGLADVAALTRAAYDVCQPPKFMLEVKGGTHFTFGQRVYEERRAGGDASLPERQVAVINSYAAAFLRLYLRNDTSAAATLQQTDPMLTLYRHDM
# B2: unnamed (protein)
# chain: WGAQNHFYETVLVDTDENPRETHLVGQIDGVFTDENYGEYEVTIYYPAINSGVSQPPDKSGAPYPAIIFAHGWLTSKELYTWIGNYCAAQGYVTLLFSVPDPTSLEAFRQSVTGITKSIDYLLVQNQGGLLSGLINTSRIGVMGHSMGAMAVLIATTEDSRIKAAVSLAPGYFGSTTKKYVEACKSIRVPIQFQAGSLDKICPPSAVETYYNAVRIPPKEIIVINGADHIQFSDAPATLWANITLEEQHETSRKYFIAWFNYYLRDDFNYYAYLFGSEARKDMENGILSSLEYVERFDC
# B3: unnamed (protein)
# chain: QSYQIGHTSIIYYDANRSNREIPTEIYYPAENEGDNVPVADPYSDGFPVISFGHGRMTTWSAYENIWSVLVQEGYIVAFACTEMSFIPNHTEFGLDIAFLVNRIQAEGIDSTSLFHGKIGTTSAVMGHSMGGATCFLSAQGNETITAITSFVSGNTSPSPIDAAVDITIPALLFSGSDDYMTPAEEYQIPIYEALNSDCKTLISITGGNHCQFAEYDYYCDTMEDNYPEPALTREEQHEVTNRFFISWVNFNLKGDFGAWYEFEDSLMTSEAITYMHDCDVTSVLEEPSETNIFMEYGLSNHPNPFNLTTTIKYELPKSAHISLKIYNISSKLIKTLVDEKENTGYNSVIWDGKDENGNPVPSGIYLYNIEIDGRVFSETKRMILLK
# B4: unnamed (protein)
# chain: QSYEMGHRSEIYIDPSRGDRAIPTEIYYPSLTAGDDVPVADPPTGGFPVVAFAHGRMMPWDDYENIWGALAPQGFVVACPTTETGFMPNRTNFSLDLIYVISRIRLENSSATSPFYGKIGNASAVIGHSFGGVATFMAAIESDSITAIVTFASGQIDSVELAGISEPALIFAGTDDSLTPAATFQIPYYNNLGSSCKTLVNIIGGTHCHFAESSYYCDIGEAGFPPPGITRERQHELTNQFLIPWLDFMLNTDPVASDSFQTLLTTSGDILYLQDCDIMGVSRDDPTDLPGIIDLLAYPNPFNSAVRIGVERGEWRVENREIFDITGRMVAEIPAQSVIPDPDRESRGVVEGLDSRFHG
# B5: unnamed (protein)
# chain: MSRAFSFASVAALLVFFAASIWLARLDKGGPPHTELMLEGEVPATLYLPGDGEHREAFLDAPPRDERPPAVVMMHGFSGDRLSMSGISRRLAESGYAVLNIDARGHGQNRNPFSSSWAAPDLFYPDLLAAVEFLRAYPFVDGSRIAVMGHSMGAGASLDYASRDSAIGAAVLVSGGWRIQGPHRPPNTLFLYATGDPERIRGRSRQLAAGLAGVNDPEVGRTYGDPTRGDAVRLAEVAGADHQTIVWREAAVRETVAWLDATFGVARSPGPVPDDPRAPLLPLIWAAFLLVMVGLGQVVGRLVPAQPYRPGGGRIAGLAAIAAAFALTMPLLALGTPGFILSMEVGDVFVSHFALAGIVLLVAIRMREPELIDSLFAPRLLPTLIGAAVGTIGVFTLMRVFEPVMHRLTLTPERFLVFVMAALGLLPLALAFNLLLRRGTTAGATLTSLAGRVLVLLVLFAGVQVGILSMVMLFMLPALGFVCLQFEVLAAAIYASSRNLLALSLIDAAWLAMVIAAIMPIRI
# B6: unnamed (protein)
# chain: MTKVNFQNKEEKRIVGILSIPKGKGPYPAVIFCHGLGSSKESPLIKTVSKKVRQVGFATFTFDCLGSRESDPYHSTAGITKRLSDLDAAIDFLAKHPRVDAERMGLYGHSLGGSVALVQASRDKRIKTAVLISPVIDFRRTGLRPINKKHMDEWDKREEILTINRKNKIVFRIPWDFFVDITSYDFVDIARKVACPVMIIHGTQDSLVPIQQSQILCQNLKNSELISLPWQKHFTRTTRKRKEAIVNSIFWFNKYLKKSATPSN
# B7: unnamed (protein)
# chain: CGSDDDSAPGSPAGNEPFYAPDELGPFAVGRSTFTIVDADRGDRELPVDVWYPVDPEEATGAPSLYQVSILVWIFPLVFTTPSEVALDSPPVSEARRFPLIVFSHGSGGLRYQSFFLTEILASHGFVVVAPSHVGNTLLDEINGTFAPLTDMMVARPLDVSYLITRMLEKNEDAADPLYGTIDADRIGVCGHSFGGFTSLAMAAGFGADPPPDLDPEIPEDLEPVPPDPRVDAIVPIAPASSWFGDSELAGIDVPTLIIGGTLDTTTPIATENVRPYEMIPAPVFRADLDGAVHFSFSNSCDLIQGMREKGIPQALIDALLGAEFTAPCNPPSLDVEEAHRITNLYTVSLFETFLEDDSRYEKYLTEAYAEASEPNVTFYANPD
# B8: unnamed (protein)
# chain: CGKDGGIMTQDVEFTSDDGVLLKGTLYLPAGISEKLPGVTLAHMNMNDRTSWAYYAEKLALEGYVVLAFDLRGWGESGGESDFHEMYRDVMAAVTYLANFGKVDRNRIASAGASMGGMASVIAASRTSSIKAVATVSSPPAWSESEPVKVIGKLPPRPVLVIAGSSDPHLDLRAARMLFLAAKEPRQWLEIKTNKHGTDIFATPQGVELERALAMFFAENLKDSGRSSTTEKDGK
# B9: unnamed (protein)
# chain: QVYEIGHTTITFNDPSRSRDIETEIYYPADVAGENVAVSTGTFPVCVFGHGFTMSVDAYENFSDVLVPQGYIILLPSTEDGFSPNHDEFGLDLAFLVDEFQLENTNGTSLFYGAIAPETALMGHSMGGGCSFLAAESNSSVTTLVNFAAAETNTSAIAAAANITIPAVVFSGEVDPVAPPADHQIPMYNALASECKTYISINDGGHCYFANYNFYCTMGEEAMMPGGPPLTREEQQQTTLDFLSIWLDYTLKGNANALTVFNDSLASSPRITYQQDCNLTILDQINPNAEFKVYPNPADQFFILESSREIKHVLIYNSMGSICLERNKRHRIDISELPEGMYVIKAITESGSFTKKIMVLH
# B10: unnamed (protein)
# chain: SRTRQILTEIYYPADTAGEEVPVAEPGAEGFPAVSFAHGRRMAWSAYSNFWEMLAPQGYIIVFPCTEMGLSPNHLDFALDCLFDAHKLQELNDLGTSIFYQKVGDTFAVTGHSMGGVVSFIAAIEDPTVTAIANFACGQASSYDLASVTAPALIFAGSDDYMTPVDQYQLLFYNELSSTCKALLILQGANHCQYAQYTSVCDDIEDQYPDPALTRTQQHAVTSTLLIPWLDYMLKGDEEAWTEFNVLAGDGDVTETHMICDLPFNTPTPASPPTPFVPATSSGGIGTLIVVISGTLALLSSRRK
# B11: unnamed (protein)
# chain: CGGGRVTPPDSPGEQMQAELAETLPEGGGREGRESDVAEVDREGESLDQGMDAEQTLPDAIGLTEEVGESGALYEAEGEAETIDGCDLADQGGEIEAWETLPPADVQQDEQLAAGTGDPFEWGPYEIGKKDYDFYDIQRMRLVPTTVWYPALPSGQSKAKYLLVVQGKAYVEPPAEPSGAPYPLVLFSHGYGGTRFQSVSYTEYLASHGYVVAAMDHIGNTFLDFFSDDAKVAQIALERPKDVRFVYQELVKLSNSGDGVMGGMVDQDRVAVTGHSFGGYTALVVAGAEIDVSEAIAACQSGAVSDIFCAYVEYWPAGEVIKLDPPIPGVQAAIYLAPGGYSAFGDQGLAAVKVPSMIFGGTLDDTCSVAVEIEPIYQALPPPKIEVLIQNGGHMSFTNLCDLPFAQFYLDKYCDVEGMIPAQQAFAVTNGLSVAFLDLYLKGVDAAAQYLTQEAVDEEFGYVELKAE
# B12: unnamed (protein)
# chain: CTDNADTDGADGAEGSATEEGGTEESGKESGEESKADLAALAAEVEEPGPWAVGTTTVETTGARDRQLPVQVWYPVDTAVAATAEPATYDFPGIEVPAGAVTGASPAPGPFPLVIYSHGNGGLRYVSSFLAEHMASHGFVVMAPDHVGNTALDTFLGSRDETDQVAEDRPVDVQAVIDAATSGQAGLEEVSPVVDGEEVAVIGHSFGGYTALALASRQAEGDDSLDAIVGLAPASSGVDDTTLEAVGVPTLLISGTLDETTPIEEDTLRPAELVSGRPLVRADIDGAGHQSFTDVCDYLGIAESQPDLPAALVEAPQEYALEGCAPELIVIDEAQRITNRLVTAFLLETLYADDSWSPLLSPGAEEGQPLALLERED
# Substrate: BHET
# Assay: Proxy for plastic degradation [HPLC-UV] (mmol)
# Conditions: pH 8
row,Protein,Proxy for plastic degradation
1,B1,0
2,B2,0
3,B4,0
4,B5,0
5,B6,0.1
6,B7,0
7,B8,0
8,B9,0
9,B10,0
10,B11,0.05
11,B12,0

# Substrate: PET
# Assay: Proxy for plastic degradation [HPLC-UV] (mmol)
# Conditions: pH 8; 30 °C
row,Protein,Proxy for plastic degradation
1,B1,0
2,B2,0
3,B3,0
4,B4,0
5,B5,0
6,B6,0
7,B7,0
8,B8,0
9,B9,0
10,B10,0
11,B11,0
12,B12,0

# Same assay, conditions: pH 8; 60 °C
row,Protein,Proxy for plastic degradation
1,B1,0
2,B3,0
3,B4,0
4,B5,0
5,B6,0
6,B7,0
7,B8,0
8,B9,0
9,B10,0
10,B11,0
11,B12,0

# Same assay, conditions: pH 6
row,Protein,Proxy for plastic degradation
1,B2,0.11

# Same assay, conditions: pH 6.5
row,Protein,Proxy for plastic degradation
1,B2,0.96

# Same assay, conditions: pH 7
row,Protein,Proxy for plastic degradation
1,B2,0.47

# Same assay, conditions: pH 7.5
row,Protein,Proxy for plastic degradation
1,B2,0.4

# Same assay, conditions: pH 8; 40 °C
row,Protein,Proxy for plastic degradation
1,B2,0.39

# Same assay, conditions: pH 8; 50 °C
row,Protein,Proxy for plastic degradation
1,B2,2.78

# Same assay, conditions: pH 8; 70 °C
row,Protein,Proxy for plastic degradation
1,B2,0.05

# Same assay, conditions: pH 8; 80 °C
row,Protein,Proxy for plastic degradation
1,B2,0.04

# — the PETadex activity labels (doi:10.1093/ismejo/wraf068)
